# Data taken from the DeepSol protein solubility set.
# Test: soluble on expression in E. coli; label from the status in PepcDB or PDB records
row,Sequence,soluble on expression in E. coli
1,MSLKITNEMQTKAETKIHRTTKVGDPSFQQMVQSQTKQLNQQQFHQLVQQISKQGSKLAQYRSFRELVKFKRMVKSFLDKAVVQGYKLEKSHSFGLQGSRHLSIVKAVDEKLIQLAEDIMDEEKKTVDILGLIGEIKGLLINIYTEGHHHHHH,soluble
2,MSLKITQIQAQNKNKNRRNVFVDGSYEFSCDMEIILKYKLKEGLEIDRTKLLQVIDQSKEEFAFRLALNYLSFKSRTSFEIYTYLLKKEYEEKIIEKVIEKLKYYRYVDDNQYVLNYIKTALAEGKKGKDRVQSDLINKKIPQDMIESHMHLFSCETNLEIAKELSNKYFKQNAHLPFNQFKNKLSQFLMRKGFNWEIINTCLNILEQDSEVQSHIDSNKELYVKEAIKLGNKYFVKYKAKETNPYLVEHKVKSHLYQKGYDKDTINLAFKKIIENSEGHHHHHH,not soluble
3,MSLKKFLKMFFPHDGIYEVLVGTSGIKPIIKPLGIIVEANELRSKIYKSTLTYSNLEKNNKCSIHVTLDTTFFILSMLDKLTFSIDSDYNVPVLKNLNVIYAECMKTSSTDPSIFTINPLDLEINSNLTRAYNRGDYISVDFLVNYTRLDIYKGEDLEKLVRILEYEWSVIKRTSQYTSSLLEEILNKMRSKGFKLDEGHHHHHH,not soluble
4,MSLKKIKRITAYQVDLPLHEGSYNWSGGKTVNIFDSTIVAIETDDGLIGYGECCPLGPFYLPSYAEGVRAGIKELGPHLIGLDATDHSYINMVMDQCLKGHPYVKSPIDIACWDIKGKAANMPISKLLGGTYDEDFVLYRAISQNEPDAMASNVKKYRDEGYRRFQLKVGGSPNEDIERIRSVASKLEDGDKLIADANTGWLAHEALRVIRAVNDIDVYIEQPCQSYEECLSVRQKTTHPFILDESVKNIGVLVRGYHDKAMDAVNIKISKFGGITKAVLARDLCTELGIAMTIEDSWGGDIVTATIAHLAHSTQPKLLFTATDFNSYVTVHIADGAPQRNNGRMKSSGEGHHHHHH,not soluble
5,MSLKKLTVAALAVTTLLSGSAFAHEAGEFFMRAGSATVRPTEGAGGTLGSLGGFSVTNNTQLGLTFTYMATDNIGVELLAATPFRHKIGTRATGDIATVHHLPPTLMAQWYFGDASSKFRPYVGAGINYTTFFDNGFNDHGKEAGLSDLSLKDSWGAAGQVGVDYLINRDWLVNMSVWYMDIDTTANYKLGGAQQHDSVRLDPWVFMFSAGYRFEGGSHHHHHH,soluble
6,MSLKKNVYFLLALLLIGLSACDNAPKFKVQGEINGAEDKMLYLEASGLDGIVALDSAKLGSSGSFSFAQKRPESPEFYRLRLDNKVINFAVDSTETVSVKAEINDFATAYRIEGSENNLKIKELVLLQADLQKNVDKLGQNRNIPAGIAQDSLLAMVNNYKNKVKREYIFAAPNMPYAYFALFQSLNGYMIFDPLTNKEDVKCFAAVATSLNNAYPHADRSRNLYNMVIKGMKNTRTPRQQTMEIPEDKIKEASIIDIQLKDLKGNTRSLTDLKGKVVLIDFTVYNNAMSAAHNLALRELYNKYASQGFEIYQISLDGDEHFWKTSADNLPWVCVRDANGAYSSYISLYNVTNLPSVFLVNRNNELSARGENIKDLDEAIKKLLEGHHHHHH,not soluble
7,MSLKKPLIVQKFGGTSVGSIERMQTVAEHIIKAKNDGNQVVVVVSAMAGETNRLVGLAQQVDSVPNARELDVLLSAGEQVSMALVAMTLHKMGYAARSLTGAQANIVTDNQHNDATIKHIDTRTITELLEQDFIVIVAGFQGINENGDITTLGRGGSDTSAVALAGALNADECQIFTDVDGIYTCDPRIVPSARKLDVIDFPSMEEMARKGAKVLHLPCVQYAWKHAVPLRVLSTFEVNQGSLIKGSAATHAVCGIALQRDMALIRVESESFPSIIKQCQMLGIEVCTTIDEPTHSAFVIKRDAYAKLQLVGADKIRGSEPVSLITKVGIQAGALVAHARQTLAQHGIDVRYVSASEQSSMLMLDPANVDRAANILHETYVTSEIPQEFGLKQTFLGEGHHHHHH,not soluble
8,MSLKLYYMPAACSLSPHIVANELELDIEFVRVNFKDHKTEGGQDYYDINPNGYIPALDVGNGAMLFEGPAIVQYMADLKPQSGLAPANGTFERYKLQEMLSFLSTEIHKGFIPLLYAKQAGAYLETATPKLEKRYAWIDNLLASQRFLMGENFTVADAYLFALTSWGQASWLKSYYGADIHFDDLLNLRGWYERVKERDAVKQSILEEGLSLSEGHHHHHH,soluble
9,MSLKMRNNVFVFDSPYCLLIYCILFNHQLHDTIYIYSDNVSLRDINFPGKERYIIKKGNNKTSKIFYYFCFLFRLIINPKLRKLISNRKDYRFLGQDHLFFSKPFLNEFILLEDGLANYRYPHYSRLYKLIIGGHTFGRSTKVNKILLSGMIDIIDPTINDKVEFFDLIAAWEKLNSVQKKEINHIFNYCIEDELVADVMILTQPLSEDGFISENEKIRLYDEIIKEYDDKKIVIRQHPRELTDYSLYFKDVKVNKVKAPVELVVLNSPMIKTAVTLFSGGIFNIPCREKIFKGTSFSPLLSKHFGNISNKFEVKGKKEGHHHHHH,soluble
10,MSLKNIVFCGLSSRAFSMFIKPLMERFSTHYEITGLLDADPKRFAVCKKKFPELAHVPEFSEDAFDEMMRVSKPDIVIVAGRDDTHVAYIVKSLQWNTDVITEKPMVTTVQDANRVLEAEAKSEGKVTVAFNYRYSPFHRKIKEMILDGKIGRVTSVDLNWYIDTYHGASYFKRWNRSRQFSGGLSVHKSTHHFDLVNWWLGQNPEEVFAYGALNYYGPDSEWNPLPEEDGRFCGTCRVKEKCHYYSRWHPRSSKASIKDDHLEAGDQSSLYTAYRPDACIFDEEIDIEDTYVAAVKYDGGALLSYSIIFSAPYEGYRLTINGTKGRIESNEFHEPSRIPFAFPEQTIEYYPLFESKQTIQVVKNEGGHGGGDPLLLEDLFLGKDPLRRYDILAGAEAGAYSIAVGEGMWRSVAEKKPIGMKELFQMQNEGHHHHHH,soluble
11,MSLKNLPIGGVWKGKVKLHSNSPAQDYFANITLNTLDPNHIDVFFPEFAHATPRVQLDLHPTGSVNGSNYAQDLTMLDMCLYDGFNGNAISYEIMLKDEGRPAAGRRDGYFSIYRQGGTTTDEGERIDYRVKMYNPETGGQIDVRNNENMVWNSINLKRVRPVVLPGIRYAVMCVPTPLTLAVDKFSVMDKQAGYYMGKLSVIFTPSLPTINEGHHHHHH,soluble
12,MSLKNQKPLAELLRPSTLEEYFGQNKLIGEQTLLRSLLKSQEIPSLILWGPPGCGKTTLAHIIASSIKQKGTGRFVTLSATSASVSDVREVIKQAQNELRLCKRKTVLFIDEIHRFNKSQQDTFLPHVECGTITLIGATTENPSFQVNSALLSRCRVLVLERLSVEAVGSILRRAVDFLDLRILDSEERHSSEICSEAQVCVEQKALDTLAHLCDGDARAALNGLQLAVQACVLQSSSNHNRSSTVVREQHIKEALQRSHILYDKAGEEHYNCISALHKSMRGSDANAALYWLARMLEGGEDPLYVARRLVRFASEDIGLADPVALSQAVAAFQACHLIGMPECEVILAQCAVYLARAPKSVEVYKAYNNVKMCLRNHKGPLPSVPLHLRNAPTKLMKNLGYAKGYKYNPNYSGPVKQEYLPEELRGVDFFTWTPSEGHHHHHH,not soluble
13,MSLKNTTHFIVFDIERNFRPYKSDDPSEIVDIGAVKIEASTMKVIGEFSELVKPGARLTRHTTKLTGITKKDLMNVEKFPQIIERFIQFIGEDSIFVTWGKEDYRFLVHDCTLHGVDCPCMEKERRIDLQKFVFQAYEELFEHTPSLQSAVEQLGLTWEGKQHRALADAENTANILLKAYSERDITKRYKRHGELELVENGKLTEKAKKKMRKWVFKEMRKNTERPFAWSTFESSDTWESITERYYISEPTIELLKKHFRTAVRKAERRIRYLAEMEKNAEVKEGHHHHHH,soluble
14,MSLKPFSEPIIRCAKARAYRIPTDRPEADGTFAWTDTTIVVATLDAGDAHGIGYTYTDASAAALIERMLAPALDGRSAFDIGGALAALRRAVRNVGRGGVAATAISALDAALWDAKAKLLGLPLAKLLGGVRDAVPVYGSGGFTSYDEHALRAQLEGWRAQGLHACKIKVGSAPRDDPARVRIARDALGGGVALFVDANGAFAPHDALAFAQRIAECDVRWFEEPVSADDIDGLRFVRERLAAGVDVAAGEYGYTLDDFRVLLASGALDVLQADATRCGGVSGFLEAATLADAFHRDLSAHCAPALHRHVCCAAPRVRHVEWFHDHARIERMLFDGAPTPRDGAIAPDMSRPGLGIELKAQDAARFAVEGHHHHHH,not soluble
15,MSLKPLADRIRPENFNEVFGQKHIIGEGKILDRILKSSLVPNMIFYGPPGTGKTTVANIIAKKTNKAFYKLNATTASVKDVREITDSTNTLMGRNGVLLYLDEIQNFNKKQQQSLLEFMENGSITLIASTTENPYFYVYNAILSRSTIFEFKPLESDELMKAVNRAVELIKDELKTTEIIITEDAKKYAVGVSSGDVRKTLNSIEIAVYSTKPNEEGNIFIDLETMKECTQKNVLNFDKDGDNHYDILSAFQKSIRGSDADAAVLYLAMLIKGGDLKSICRRLLVIAAEDIGLAYPQAISIVKACTDSALELGFPEARIPLAEAVILLATSPKSNSAITAVDSALRDLDTINVGSIPDYLRDGHYEGAKKLGRMQDYKYPHSYENNYVKQKYLPSNLENRRYYEYGKNKIEEKCREYWERIKEGHHHHHH,soluble
16,MSLKPLAYRMRPTKIEDIIGQQHLVAEDKIIGRMVQAKHLSSMILYGPPGIGKTSIATAIAGSTSIAFRKLNAVINNKKDMEIVAQEAKMSGQVILILDEVHRLDKGKQDFLLPYLENGMIILIGATTANPYHAINPAIRSRTQIFELEPLTPELIKQALERALHDEHRGLGTYSVSIDDQAMEHFAHGCGGDVRSALNALELAVLSTKESADGEIHITLETAEECLQKKSFSHDKDGDAHYDVLSAFQKSIRGSDANAALHYLARLIEAGDLESIARRLLVIAYEDIGLASPQAGPRVLNAIQTAERVGFPEARIPLANAVIELCLSPKSNSAILAIDEALADIRAGKIGDVPKHLKDAHYKGAQELGRGIDYKYPHNYDNGWVEQQYLPDPLKNKQYYKPKQTGKFESALKQVYDKLMKGIITITTDPNSSSVDKLAAALEHHHHHH,soluble
17,MSLKPVMIIQFSASEGPGHFGDFLAGEHIPFQVLRMDRSDPLPAEIRDCSGLAMMGGPMSANDDLPWMPTLLALIRDAVAQRVPVIGHCLGGQLLAKAMGGEVTDSPHAEIGWVRAWPQHVPQALEWLGTWDELELFEWHYQTFSIPPGAVHILRSEHCANQAYVLDDLHIGFQCHIEMQAHMVREWCSISPEELKGGAEADPAQPMVQSAVEILRDLDVRIATLNRWAEHVYARWIKGLQREGHHHHHH,soluble
18,MSLKPWLLMMLTTLLVGCGGTPQPKVSFYLLPNNPELSEHIQPKTLPLLVVQPVELAAYLDTQGIVYRQSETQVIQARQNQWAQRLSPQLTQRITNDLRRKQSRYWPAPLNASSIQQEHWKLQVRLQRFNGVYTGNAEVAGNWELLNPKGESMLNQEFSFQVPLKDTGYPALVEALSAGVDQLSTQIETQLVTREGHHHHHH,soluble
19,MSLKQEKLALVESALEDFYGDQQFASSLRESVLYSIHAGGKRIRPFLLLEVLEALQVTIKPAHAQVATALEMIHTGSLIHDDLPAMDDDDYRRGRLTNHKKFGEAMAILAGDALFLDSYALIAQADLPSQIKVDLIANLSLASGSLGMVAGQVLDMEGEHQHLSLEELQTIHANKTGKLLAYPFQAAAIIAELSPEMQVKLKTVGELIGLAFQVRDDVLDVTASFEEIGKTPQKDLQAEKSTYPALLGLEESIAFCNQTLDQANEKLEEIAQQLPFETESIVSVVESLRINGEGHHHHHH,soluble
